Tested on: Escherichia coli TOP10
Assay: shrunken log2 fold change of peptide-encoding DNA abundance (4.5 h post-induction vs induction); higher = less antimicrobial activity (less host growth inhibition)
Conditions: time post-induction: 4.5 h; library: site-saturation at positions 5, 18, 19, 20
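Also: peptides expressed intracellularly from a pBAD plasmid library in pooled LB shake-flask culture, induced with 0.3% L-arabinose, DNA abundance read by NGS, three biological replicates, DESeq2 with apeglm shrinkage.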

Point of comparison: RRIRKRPPRLPRPRPRPIGIPRP, “shrunken log2 fold change” value -0.01. Against it:
- RRIRDRPPRLPRPRPRPPLKPRP — within 0.2 log units, 0.0742
- RRIRDRPPRLPRPRPRPSQGPRP — within 0.2 log units, -0.0558
- RRIRVRPPRLPRPRPRPLKAPRP — within 0.2 log units, 0.157
- RRIRGRPPRLPRPRPRPIIQPRP — higher, 0.203
- RRIRARPPRLPRPRPRPAVDPRP — higher, 0.289
- RRIRPRPPRLPRPRPRPEQLPRP — within 0.2 log units, 0.0838
- RRIRGRPPRLPRPRPRPMHKPRP — higher, 0.866
- RRIRARPPRLPRPRPRPSFDPRP — within 0.2 log units, 0.103
- RRIRKRPPRLPRPRPRPASSPRP — within 0.2 log units, 0.0469
- RRIRGRPPRLPRPRPRPGWMPRP — higher, 0.315
- RRIRVRPPRLPRPRPRPVHAPRP — within 0.2 log units, -0.189
- RRIRPRPPRLPRPRPRPVFPPRP — within 0.2 log units, 0.181
- RRIRGRPPRLPRPRPRPWMWPRP — higher, 0.218
- RRIRPRPPRLPRPRPRPKWDPRP — higher, 0.319
- RRIRWRPPRLPRPRPRPPVWPRP — higher, 0.478
- RRIRSRPPRLPRPRPRPLEFPRP — within 0.2 log units, -0.195
- RRIRSRPPRLPRPRPRPCTPPRP — lower, -0.312
- RRIRRRPPRLPRPRPRPIDFPRP — within 0.2 log units, 0.137
- RRIRDRPPRLPRPRPRPQSPPRP — within 0.2 log units, 0.0974
- RRIRVRPPRLPRPRPRPRRIPRP — within 0.2 log units, -0.0306
- RRIRGRPPRLPRPRPRPWSWPRP — higher, 1.1
- RRIRQRPPRLPRPRPRPPPVPRP — higher, 0.607
- RRIRKRPPRLPRPRPRPGVIPRP — higher, 0.251
- RRIRFRPPRLPRPRPRPTTAPRP — higher, 0.297
- RRIRKRPPRLPRPRPRPIYMPRP — within 0.2 log units, -0.0645
- RRIRMRPPRLPRPRPRPMMSPRP — within 0.2 log units, 0.0456
- RRIRIRPPRLPRPRPRPDSWPRP — lower, -0.268
- RRIRYRPPRLPRPRPRPKQSPRP — within 0.2 log units, -0.156
- RRIRARPPRLPRPRPRPPIDPRP — higher, 0.647
- RRIRIRPPRLPRPRPRPEIMPRP — within 0.2 log units, -0.183
- RRIRIRPPRLPRPRPRPCRGPRP — within 0.2 log units, 0.0305
- RRIRDRPPRLPRPRPRPQVMPRP — within 0.2 log units, 0.0256
- RRIRHRPPRLPRPRPRPKTFPRP — lower, -0.45
- RRIRTRPPRLPRPRPRPMFQPRP — lower, -0.446
- RRIRRRPPRLPRPRPRPLRCPRP — higher, 0.714
- RRIRGRPPRLPRPRPRPGNCPRP — within 0.2 log units, 0.131
- RRIRRRPPRLPRPRPRPNCFPRP — within 0.2 log units, 0.176
- RRIRSRPPRLPRPRPRPAQYPRP — within 0.2 log units, 0.0401
- RRIRYRPPRLPRPRPRPFTCPRP — within 0.2 log units, -0.103
- RRIRWRPPRLPRPRPRPKTSPRP — within 0.2 log units, 0.104
- RRIRFRPPRLPRPRPRPWGSPRP — within 0.2 log units, -0.0689
- RRIRVRPPRLPRPRPRPKTTPRP — within 0.2 log units, -0.0198
- RRIRRRPPRLPRPRPRPFNAPRP — within 0.2 log units, -0.0138
- RRIRRRPPRLPRPRPRPPDLPRP — higher, 0.66
- RRIRCRPPRLPRPRPRPWFQPRP — within 0.2 log units, -0.2
- RRIRMRPPRLPRPRPRPFEEPRP — within 0.2 log units, 0.0197
- RRIRFRPPRLPRPRPRPFQRPRP — within 0.2 log units, 0.0192
- RRIRHRPPRLPRPRPRPRVAPRP — higher, 0.395
- RRIRFRPPRLPRPRPRPLECPRP — within 0.2 log units, -0.0348
- RRIRGRPPRLPRPRPRPFCKPRP — within 0.2 log units, 0.0671
- RRIRDRPPRLPRPRPRPRTKPRP — within 0.2 log units, 0.16
- RRIRQRPPRLPRPRPRPLTLPRP — within 0.2 log units, -0.104
- RRIRWRPPRLPRPRPRPLNEPRP — within 0.2 log units, -0.0646
- RRIRYRPPRLPRPRPRPVDVPRP — lower, -0.359
- RRIRGRPPRLPRPRPRPYSPPRP — lower, -0.528
- RRIRDRPPRLPRPRPRPQKVPRP — within 0.2 log units, -0.114
- RRIRHRPPRLPRPRPRPFVSPRP — within 0.2 log units, -0.19
- RRIRRRPPRLPRPRPRPMVEPRP — lower, -0.257
- RRIRSRPPRLPRPRPRPHRVPRP — within 0.2 log units, 0.0316
- RRIRPRPPRLPRPRPRPTHMPRP — higher, 0.255
- RRIRDRPPRLPRPRPRPKRKPRP — within 0.2 log units, 0.0894
- RRIRTRPPRLPRPRPRPYYQPRP — within 0.2 log units, -0.122
- RRIRVRPPRLPRPRPRPAESPRP — within 0.2 log units, 0.0613
- RRIRCRPPRLPRPRPRPKRGPRP — higher, 0.27
- RRIRTRPPRLPRPRPRPMYGPRP — within 0.2 log units, -0.000687
- RRIRSRPPRLPRPRPRPEWCPRP — higher, 0.219
- RRIRLRPPRLPRPRPRPRLSPRP — higher, 0.346
- RRIRPRPPRLPRPRPRPFIFPRP — higher, 0.29
- RRIRIRPPRLPRPRPRPAWMPRP — within 0.2 log units, 0.0797
- RRIRCRPPRLPRPRPRPNVNPRP — lower, -0.461
- RRIRQRPPRLPRPRPRPQVEPRP — within 0.2 log units, -0.0173
- RRIRKRPPRLPRPRPRPNWQPRP — within 0.2 log units, 0.0483
- RRIRHRPPRLPRPRPRPKMNPRP — lower, -0.487
- RRIRSRPPRLPRPRPRPFPWPRP — within 0.2 log units, -0.0834
- RRIRARPPRLPRPRPRPFKQPRP — within 0.2 log units, 0.123
- RRIRDRPPRLPRPRPRPIFEPRP — higher, 0.419
- RRIRYRPPRLPRPRPRPVNVPRP — within 0.2 log units, -0.0979
- RRIRSRPPRLPRPRPRPLETPRP — within 0.2 log units, -0.122
- RRIRTRPPRLPRPRPRPMYQPRP — lower, -0.416
- RRIRCRPPRLPRPRPRPNHAPRP — within 0.2 log units, -0.00846
- RRIRARPPRLPRPRPRPYFIPRP — lower, -0.73
- RRIRTRPPRLPRPRPRPQCYPRP — lower, -0.256
- RRIRHRPPRLPRPRPRPCVCPRP — within 0.2 log units, 0.0978
- RRIRTRPPRLPRPRPRPSCCPRP — lower, -0.341
- RRIRQRPPRLPRPRPRPQKDPRP — lower, -0.29
- RRIRQRPPRLPRPRPRPVEPPRP — within 0.2 log units, 0.117
- RRIRVRPPRLPRPRPRPKFYPRP — lower, -0.46
- RRIRHRPPRLPRPRPRPFFLPRP — lower, -0.238
- RRIRCRPPRLPRPRPRPHSMPRP — lower, -0.718
- RRIRFRPPRLPRPRPRPYIMPRP — lower, -1.09
- RRIRPRPPRLPRPRPRPTSYPRP — within 0.2 log units, -0.0178
- RRIRNRPPRLPRPRPRPEWHPRP — lower, -0.285
- RRIRGRPPRLPRPRPRPWRKPRP — within 0.2 log units, 0.12
- RRIRVRPPRLPRPRPRPTPKPRP — higher, 0.297
- RRIRDRPPRLPRPRPRPCWWPRP — higher, 0.249
- RRIRIRPPRLPRPRPRPLHSPRP — lower, -0.402
- RRIRERPPRLPRPRPRPQWPPRP — within 0.2 log units, -0.0675
- RRIRNRPPRLPRPRPRPWMWPRP — within 0.2 log units, -0.0133
- RRIRRRPPRLPRPRPRPMWNPRP — within 0.2 log units, 0.00386
- RRIRGRPPRLPRPRPRPHETPRP — within 0.2 log units, -0.022
- RRIRLRPPRLPRPRPRPQYCPRP — higher, 0.273
- RRIRMRPPRLPRPRPRPLEEPRP — higher, 3.36
- RRIRARPPRLPRPRPRPKGMPRP — higher, 0.4
- RRIRERPPRLPRPRPRPPQQPRP — within 0.2 log units, 0.00573
- RRIRLRPPRLPRPRPRPAIIPRP — within 0.2 log units, -0.197
- RRIRMRPPRLPRPRPRPFADPRP — higher, 2.11
- RRIRLRPPRLPRPRPRPYALPRP — within 0.2 log units, -0.141
- RRIRPRPPRLPRPRPRPDVKPRP — within 0.2 log units, -0.137
- RRIRARPPRLPRPRPRPDIFPRP — within 0.2 log units, 0.148
- RRIRVRPPRLPRPRPRPNHDPRP — lower, -0.369
- RRIRNRPPRLPRPRPRPVNTPRP — within 0.2 log units, -0.0908
- RRIRSRPPRLPRPRPRPCMGPRP — lower, -0.403
- RRIRDRPPRLPRPRPRPPGAPRP — higher, 0.564
- RRIRDRPPRLPRPRPRPIEQPRP — within 0.2 log units, 0.0525
- RRIRRRPPRLPRPRPRPVSSPRP — within 0.2 log units, 0.0647
- RRIRRRPPRLPRPRPRPCDEPRP — higher, 0.197
- RRIRNRPPRLPRPRPRPMSMPRP — within 0.2 log units, -0.0143
- RRIRTRPPRLPRPRPRPDYKPRP — lower, -0.303
- RRIRDRPPRLPRPRPRPNCWPRP — within 0.2 log units, -0.113
- RRIRYRPPRLPRPRPRPFYQPRP — lower, -0.224
- RRIRRRPPRLPRPRPRPKREPRP — higher, 0.304
- RRIRGRPPRLPRPRPRPMLEPRP — higher, 0.778
- RRIRQRPPRLPRPRPRPRHAPRP — within 0.2 log units, -0.0685
- RRIRQRPPRLPRPRPRPLCMPRP — lower, -0.37
- RRIRKRPPRLPRPRPRPHIAPRP — lower, -0.415
- RRIRPRPPRLPRPRPRPARNPRP — higher, 0.328
- RRIRNRPPRLPRPRPRPKQLPRP — higher, 0.252
- RRIRSRPPRLPRPRPRPRPVPRP — higher, 1.01
- RRIRQRPPRLPRPRPRPMMNPRP — within 0.2 log units, -0.127
- RRIRDRPPRLPRPRPRPCAGPRP — within 0.2 log units, 0.0969
- RRIRVRPPRLPRPRPRPTFFPRP — within 0.2 log units, 0.0435
- RRIRVRPPRLPRPRPRPLKLPRP — lower, -0.337
- RRIRERPPRLPRPRPRPSFEPRP — within 0.2 log units, -0.132
- RRIRWRPPRLPRPRPRPPEVPRP — higher, 0.334
- RRIRPRPPRLPRPRPRPICKPRP — within 0.2 log units, -0.081
- RRIRGRPPRLPRPRPRPGKIPRP — higher, 1.93
- RRIRPRPPRLPRPRPRPEDAPRP — within 0.2 log units, 0.0442
- RRIRFRPPRLPRPRPRPFCEPRP — within 0.2 log units, -0.124
- RRIRSRPPRLPRPRPRPQRPPRP — within 0.2 log units, 0.0966
- RRIRMRPPRLPRPRPRPPPLPRP — higher, 1.58
- RRIRVRPPRLPRPRPRPMMYPRP — within 0.2 log units, 0.00519
- RRIRIRPPRLPRPRPRPDADPRP — higher, 0.194
- RRIRDRPPRLPRPRPRPLLCPRP — higher, 0.503
- RRIRCRPPRLPRPRPRPRHYPRP — lower, -0.393
- RRIRSRPPRLPRPRPRPMIYPRP — lower, -0.257
- RRIRCRPPRLPRPRPRPVGGPRP — higher, 0.273
- RRIRSRPPRLPRPRPRPMHPPRP — within 0.2 log units, -0.0546
- RRIRNRPPRLPRPRPRPMALPRP — within 0.2 log units, -0.0652
- RRIRRRPPRLPRPRPRPSGNPRP — within 0.2 log units, 0.122
